Results: paper PMC6384913

Tested on: MBP-(ZF)x6 (designed chimera), Q01844-5+P47974+O95218+O95218+P52756+P47974
Experiment: BLI
Details: ITC: 50 mM Tris pH 7.5, 150 mM NaCl, 1 mM DTT, 0.1 mM ZnCl2, 25 °C, BLI: 50 mM Tris pH 7.5, 150 mM NaCl, 0.1% BSA, 0.02% Tween, 30 °C

Sequence of MBP-(ZF)x6 (designed chimera), Q01844-5+P47974+O95218+O95218+P52756+P47974 (P52756 whole entry, looked up, change not shown, chain 1 of 4): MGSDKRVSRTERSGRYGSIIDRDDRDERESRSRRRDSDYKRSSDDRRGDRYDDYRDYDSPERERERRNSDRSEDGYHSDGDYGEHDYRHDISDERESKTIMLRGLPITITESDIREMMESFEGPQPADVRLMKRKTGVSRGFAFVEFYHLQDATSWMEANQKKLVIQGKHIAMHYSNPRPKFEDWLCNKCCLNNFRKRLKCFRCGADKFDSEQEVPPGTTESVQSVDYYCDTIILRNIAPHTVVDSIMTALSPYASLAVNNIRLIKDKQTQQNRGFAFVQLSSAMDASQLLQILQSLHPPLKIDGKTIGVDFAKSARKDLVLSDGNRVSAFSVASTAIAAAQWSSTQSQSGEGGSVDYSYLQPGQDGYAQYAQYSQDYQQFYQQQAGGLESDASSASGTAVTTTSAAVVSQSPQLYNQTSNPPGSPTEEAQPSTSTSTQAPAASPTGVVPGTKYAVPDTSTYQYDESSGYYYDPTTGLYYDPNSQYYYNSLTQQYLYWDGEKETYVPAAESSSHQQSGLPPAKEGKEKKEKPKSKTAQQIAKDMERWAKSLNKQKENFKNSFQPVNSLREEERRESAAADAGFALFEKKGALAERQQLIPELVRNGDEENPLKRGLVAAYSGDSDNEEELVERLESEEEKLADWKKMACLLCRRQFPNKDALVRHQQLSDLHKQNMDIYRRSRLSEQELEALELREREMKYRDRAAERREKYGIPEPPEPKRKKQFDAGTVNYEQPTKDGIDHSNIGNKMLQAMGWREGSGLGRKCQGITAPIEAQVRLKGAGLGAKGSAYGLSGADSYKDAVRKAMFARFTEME
Sequence of MBP-(ZF)x6 (designed chimera), Q01844-5+P47974+O95218+O95218+P52756+P47974 (P47974 whole entry, looked up, change not shown, chain 2 of 4): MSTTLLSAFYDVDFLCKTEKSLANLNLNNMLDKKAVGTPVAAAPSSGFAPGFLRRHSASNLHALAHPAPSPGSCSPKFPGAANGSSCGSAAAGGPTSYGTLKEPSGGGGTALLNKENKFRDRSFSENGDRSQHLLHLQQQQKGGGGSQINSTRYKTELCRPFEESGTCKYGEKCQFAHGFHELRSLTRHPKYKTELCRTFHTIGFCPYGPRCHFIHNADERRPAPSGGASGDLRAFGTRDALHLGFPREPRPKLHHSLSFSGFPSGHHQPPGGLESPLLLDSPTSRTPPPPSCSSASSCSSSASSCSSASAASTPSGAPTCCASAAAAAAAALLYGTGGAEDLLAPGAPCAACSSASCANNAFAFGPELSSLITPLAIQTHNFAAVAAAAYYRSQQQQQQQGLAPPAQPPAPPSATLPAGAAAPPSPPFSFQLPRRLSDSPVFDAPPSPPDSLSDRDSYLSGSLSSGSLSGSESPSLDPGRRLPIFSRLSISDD
Sequence of MBP-(ZF)x6 (designed chimera), Q01844-5+P47974+O95218+O95218+P52756+P47974 (O95218 whole entry, looked up, change not shown, chain 3 of 4): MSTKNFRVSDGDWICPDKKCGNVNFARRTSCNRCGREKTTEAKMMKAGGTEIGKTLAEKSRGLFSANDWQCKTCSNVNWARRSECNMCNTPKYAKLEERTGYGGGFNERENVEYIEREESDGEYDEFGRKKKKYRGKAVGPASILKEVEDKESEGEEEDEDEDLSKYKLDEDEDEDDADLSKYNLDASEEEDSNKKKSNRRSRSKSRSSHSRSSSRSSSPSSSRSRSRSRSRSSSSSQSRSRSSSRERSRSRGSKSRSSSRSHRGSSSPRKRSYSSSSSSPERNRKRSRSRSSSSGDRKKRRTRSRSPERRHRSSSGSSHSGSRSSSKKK
Sequence of MBP-(ZF)x6 (designed chimera), Q01844-5+P47974+O95218+O95218+P52756+P47974 (Q01844 whole entry, looked up, change not shown, chain 4 of 4): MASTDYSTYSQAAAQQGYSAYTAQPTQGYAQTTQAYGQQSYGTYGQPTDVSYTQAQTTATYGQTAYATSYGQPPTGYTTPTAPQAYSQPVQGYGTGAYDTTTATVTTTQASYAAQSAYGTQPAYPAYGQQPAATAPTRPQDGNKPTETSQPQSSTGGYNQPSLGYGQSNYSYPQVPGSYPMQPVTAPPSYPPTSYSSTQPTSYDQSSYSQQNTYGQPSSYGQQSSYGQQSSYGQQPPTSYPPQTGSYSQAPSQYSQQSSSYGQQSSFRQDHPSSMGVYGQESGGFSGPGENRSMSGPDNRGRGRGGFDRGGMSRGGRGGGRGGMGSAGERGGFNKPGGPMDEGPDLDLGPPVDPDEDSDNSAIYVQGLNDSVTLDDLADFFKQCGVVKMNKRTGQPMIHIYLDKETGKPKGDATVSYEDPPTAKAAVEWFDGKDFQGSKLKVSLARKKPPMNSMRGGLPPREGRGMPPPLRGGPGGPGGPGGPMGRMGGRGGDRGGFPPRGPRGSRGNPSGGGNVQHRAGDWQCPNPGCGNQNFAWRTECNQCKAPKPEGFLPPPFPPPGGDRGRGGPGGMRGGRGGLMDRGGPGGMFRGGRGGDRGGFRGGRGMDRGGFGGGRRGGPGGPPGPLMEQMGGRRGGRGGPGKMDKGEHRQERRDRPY

“AAAUAUUGGUGGGUAUUGCCGGUAAA [PT (permuted target)]” showed a Kd of 223 nM.

“AAAGGUUAUUGGUGCCGGGUAUUAAA [(ZF)x6 target]” gave a Kd of 24 nM.
